Test results published in patent US6353153B1, “Enhanced transport with a plastid membrane transport protein” (priority 1996, dated 2002).

What was measured:
[1] = test system: β-lactamase transport in E. coli MM52 (secAts); test: Ampicillin resistance, colony formation in temperature-sensitive secA mutant strain MM52; type: cell-based, Escherichia coli; details: 30° C. permissive temperature
Excerpt: The effects of Bce44B on β-lactamase transport were further tested in a temperature-sensitive secA (secAts) mutant bacterial strain (MM52, a gift from Dr. Jon Beckwith, Harvard Medical School, Boston Mass.) to provide further evidence that the expressed Bce44B component affected protein translocation in bacteria and that the protein transport enhancement was not due solely to the upregulation of the existing bacterial transport machinery such as SecA. See Example 17. The defective protein translocation phenotype in MM52 appears primarily when cells are subjected to temperatures above 30° C. Protein translocation slows down and comes to a halt upon shifting to temperatures above 30° C. […] Effects on protein transport can then be monitored in this strain by tracking the β-lactamase profiles at permissive and non-permissive temperatures.
The same Bce44B gene construct and control Oee1-Dhfr plasmid were introduced into MM52 and its wild type counterpart strain MC4100 (containing the wild-type SecA) via electroporation. The role of Bce44B in protein translocation was assessed as before using three different criteria: 1) the level of antibiotic resistance conferred; 2) the profile of transported versus precursor β-lactamase at permissive and non-permissive temperatures; and 3) the level of sensitivity of protein transport to sodium azide. […]

[2] = test system: β-lactamase transport in E. coli JM109(DE3); test: Ampicillin resistance, ability to form colonies on LB-agar plates with increasing ampicillin; type: cell-based, Escherichia coli; details: solid agar media with increasing ampicillin
Excerpt: The enhancement of protein translocation was further investigated using the plasmid-borne multicopy gene, β-lactamase. See Example 14. β-lactamase protein levels are much higher than induced alkaline phosphatase making this system a more sensitive monitor of protein translocation without the complications posed by low phosphate induction. Like alkaline phosphatase, β-lactamase is translocated into the periplasm, where it detoxifies the antibiotic ampicillin, thereby conferring ampicillin-resistance to cells. Because the level of antibiotic resistance conferred also reflects the level of protein transport activity, the level of ampicillin resistance was determined for Bce44B expressing cells and compared to that of Oee1-Dhfr-expressing cells on solid agar media containing increasing concentrations of ampicillin. […] The Bce44B-expressing cells formed colonies with ampicillin concentrations as high as 3 mg/ml, whereas Oee1-Dhfr-expressing cells could not form colonies beyond 1 mg/ml.
Changes to β-lactamase transport were monitored by two different approaches: 1) the ability to form colonies on solid LB-agar plates containing increasing concentrations of ampicillin (50 μg/ml to 3.0 mg/ml); and 2) the level of transported and processed β-lactamase detected by immunoblotting total protein samples of cells grown in LB-broth containing increasing ampicillin concentrations. […]

B1: Bce44B: plastid transport protein, Brassica napus 44 kDa chloroplast envelope protein, member of Com44/Cim44, encoded by SEQ ID NO:1 (protein)
chain: MQTAMKTMMNQMNTQNSQFNNPGFPTGAGAGAGSPFPFPFPPQTSPTTSPFQPQSQSSGATVDLTATKVDRPPVSKPQPTPIPPTKSIEVYKPSVVVEENKAMKEEKNYAFEDVSPEETTKESPFSNYEEVSETSAPKETRLFDDVLQNGAAPANGATASDVFQSLGAGKGWAGGSVEVLEKMIEYPTFQKMLYPHLPEEMRNPESFKWVRKNPQYRQQLQDMLNNMSESGEWDKRMTETLKNFDPNSPEVKQGFDQLGLTPEEVISKIMENPDVSMAFQNPRVEAALMDCSENPMNIMKYQNDKEVMDVFNKISQLFPGLTG
For B1, the “ampicillin concentration up to which expressing cells form colonies” value [1] was “up to 3 mg/ml” and the “ampicillin concentration up to which expressing cells form colonies” value [2] was no more than 3 mg/mL.
